Data reported in patent US10822618B2, “Method of using a transgenic mouse with alpha-one antitrypsin (ATT) deficiency to screen compounds” (University of Massachusetts, priority 2016, dated 2020).

B1: AAT 1-3: murine α-1-antitrypsin protein corresponding to one of the Serpina1 genes (A-E) (protein, UniProt Q00896 25-412, looked up)
Alpha-1-antitrypsin 1-3: EDVQETDTSQKDQSPASHEIATNLGDFAISLYRELVHQSNTSNIFFSPVSIATAFAMLSLGSKGDTHTQILEGLQFNLTQTSEADIHKSFQHLLQTLNRPDSELQLSTGNGLFVNNDLKLVEKFLEEAKNHYQAEVFSVNFAESEEAKKVINDFVEKGTQGKIVEAVKKLDQDTVFALANYILFKGKWKKPFDPENTEEAEFHVDESTTVKVPMMTLSGMLDVHHCSTLSSWVLLMDYAGNATAVFLLPDDGKMQHLEQTLSKELISKFLLNRRRRLAQIHFPRLSISGEYNLKTLMSPLGITRIFNNGADLSGITEENAPLKLSQAVHKAVLTIDETGTEAAAVTVLLAVPYSMPPILRFDHPFLFIIFEEHTQSPLFVGKVVDPTH
B2: AAT 1-1: murine α-1-antitrypsin protein corresponding to one of the Serpina1 genes (A-E) (protein, UniProt P07758 25-413, looked up)
Alpha-1-antitrypsin 1-1: EDVQETDTSQKDQSPASHEIATNLGDFAISLYRELVHQSNTSNIFFSPVSIATAFAMLSLGSKGDTHTQILEGLQFNLTQTSEADIHKSFQHLLQTLNRPDSELQLSTGNGLFVNNDLKLVEKFLEEAKNHYQAEVFSVNFAESEEAKKVINDFVEKGTQGKIAEAVKKLDQDTVFALANYILFKGKWKKPFDPENTEEAEFHVDESTTVKVPMMTLSGMLHVHHCSTLSSWVLLMDYAGNATAVFLLPDDGKMQHLEQTLSKELISKFLLNRRRRLAQIHFPRLSISGEYNLKTLMSPLGITRIFNNGADLSGITEENAPLKLSQAVHKAVLTIDETGTEAAAVTVLQMVPMSMPPILRFDHPFLFIIFEEHTQSPIFLGKVVDPTHK
B3: AAT 1-2: murine α-1-antitrypsin protein corresponding to one of the Serpina1 genes (A-E) (protein, UniProt P22599 25-413, looked up)
Alpha-1-antitrypsin 1-2: EDVQETDTSQKDQSPASHEIATNLGDFAISLYRELVHQSNTSNIFFSPVSIATAFAMLSLGSKGDTHTQILEGLQFNLTQTSEADIHKSFQHLLQTLNRPDSELQLSTGNGLFVNNDLKLVEKFLEEAKNHYQAEVFSVNFAESEEAKKVINDFVEKGTQGKIVEAVKELDQDTVFALANYILFKGKWKKPFDPENTEEAEFHVDKSTTVKVPMMMLSGMLDVHHCSILSSWVLLMDYAGNASAVFLLPEDGKMQHLEQTLNKELISKILLNRRRRLVQIHIPRLSISGDYNLKTLMSPLGITRIFNNGADLSGITEENAPLKLSKAVHKAVLTIDETGTEAAAATVFEAVPMSMPPILRFDHPFLFIIFEEHTQSPIFVGKVVDPTHK
B4: AAT 1-4: murine α-1-antitrypsin protein corresponding to one of the Serpina1 genes (A-E) (protein, UniProt Q00897 25-413, looked up)
Alpha-1-antitrypsin 1-4: EDVQETDTSQKDQSPASHEIATNLGDFALRLYRELVHQSNTSNIFFSPVSIATAFAMLSLGSKGDTHTQILEGLQFNLTQTSEADIHKSFQHLLQTLNRPDSELQLSTGNGLFVNNDLKLVEKFLEEAKNHYQAEVFSVNFAESEEAKKVINDFVEKGTQGKIVEAVKKLDQDTVFALANYILFKGKWKQPFDPENTEEAEFHVDESTTVKVPMMTLSGMLDVHHCSMLSSWVLLMDYAGNTTAVFLLPDDGKMQHLEQTLNKELISQFLLNRRRSDAQIHIPRLSISGNYNLKTLMSPLGITRIFNNGADLSGITEENAPLKLSKAVHKAVLTIDETGTEAAAATVLQVATYSMPPIVRFDHPFLFIIFEEHTQSPIFVGKVVDPTHK

Tested on: not listed separately
Assay: Respiratory phenotype in response to intratracheal PPE
Format: in vivo, mice
Details: intratracheal dose of 0.33 IU; FIG. 7
Source text: FIG. 7. Respiratory phenotype in response to a low and high dose of PPE.
In the case of PPE: porcine pancreatic elastase, the respiratory phenotype is reported as “a stronger phenotype is induced”.

Biological target: pancreatic elastase (Sus scrofa, UniProt P00772)
Sequence (P00772 27-266): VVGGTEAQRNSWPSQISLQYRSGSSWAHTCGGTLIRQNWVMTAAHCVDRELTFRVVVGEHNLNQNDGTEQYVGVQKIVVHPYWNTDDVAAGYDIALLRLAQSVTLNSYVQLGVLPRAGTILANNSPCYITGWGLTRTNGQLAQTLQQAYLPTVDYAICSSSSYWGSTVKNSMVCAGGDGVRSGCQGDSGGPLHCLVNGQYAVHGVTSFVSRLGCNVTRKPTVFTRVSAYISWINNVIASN
Assay: not given
Details: murine AAT protein, C57BL/6J; cited from earlier work
In the case of B1, the “inhibition of pancreatic elastase” value is given as “do not”.
In the case of B2, the “inhibition of pancreatic elastase” value is listed as “inhibit”.
In the case of B3, the “inhibition of pancreatic elastase” value is given as “inhibit”.
In the case of B4, the “inhibition of pancreatic elastase” value is listed as “do not”.

Biological target: T1, neutrophil elastase (Homo sapiens, UniProt P08246)
T1 sequence (P08246 30-267): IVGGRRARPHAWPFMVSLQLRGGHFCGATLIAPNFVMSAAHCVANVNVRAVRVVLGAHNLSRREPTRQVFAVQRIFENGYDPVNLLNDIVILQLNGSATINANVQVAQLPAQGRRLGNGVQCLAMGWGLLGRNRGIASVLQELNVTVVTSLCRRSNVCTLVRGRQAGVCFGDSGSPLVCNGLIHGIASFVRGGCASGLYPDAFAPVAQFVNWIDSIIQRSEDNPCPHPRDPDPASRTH
Assay: not given
Details: murine AAT protein, C57BL/6J; cited from earlier work
In the case of B1, the “inhibition of neutrophil elastase” value is given as “do not”.
For B2, the “inhibition of neutrophil elastase” value is given as “inhibit”.
In the case of B3, the “inhibition of neutrophil elastase” value is listed as “inhibit”.
In the case of B4, the “inhibition of neutrophil elastase” value is listed as “do not”.
